B1: VHH antibody Ma8D07 (VHH)
VHH: QVQLVESGGGLVQPGGSLRLSCAASESIYKLNAMGWYRQAPGKELELVTTISSGGSTFYTDPVKGRFTISTDNAKNTVYLQMRSLKPEDTAMYYCAANPTYNHYSARGQGTQVTVSS
B2: VHH antibody Ma8D08 (VHH)
VHH: QVQLVESGGGFVQAGGSLRLSCAASESIYKLNAMGWYRQAPGKELELVTTISSGGSTFYTDPVKGRFTISTDNAKNTVYLQMRSLKPEDTAMYYCAANPTYNHYSARGQGTQVTVSS
B3: VHH antibody Ma7B01 (VHH)
VHH: QVQLVESGGGLVQAGDSLSLSCAASGRTFSNYAMGWFRQAPGKERHFVAVINQIGDSTWYPDFAKGRFTISRDNAKNTLYLQMNSLKPEDTAVYYCAATDPRSYWRIWPHEYGYWGQGTQVTVSS
B4: VHH antibody Ma7E01 (VHH)
VHH: QVQLVESGGGSVQAGDSLSLSCVASERTFSNYAMGWFRQAPGKERHFVAVINPIGEETWYPDFAKGRFTISRDNAKNTLYLQMNSLKPEDTAVYYCAATDPRSYWRIWEHEFDYWGQGTQVTVSS
B5: VHH antibody Ma7C02 (VHH)
VHH: QVQLVESGGGLVQAGGSLRLSCAASGRTFSDYAMGWFRQAAGKDRDFVAVITRSGDSTYYPDSTKGRFTISRDNAKNTMYLQMNSLKPEDTARYYCAATDPTNYWRIWEHEFDYWGQGTQVTVSS
B6: VHH antibody Ma8A05 (VHH)
VHH: QVQLVESGGGLVQPGGSLRLSCAASPASGFTLDLYTIAWFLQAPGKEREGVSAISLSDEITYYSDAVKGRFTISRDSAKNTVFLQMDRLKPEDTGVYYCAIGAFDFILKEADADYWGQGTQVTVSS
B7: VHH antibody Ma8D05 (VHH)
VHH: QVQLVESGGGLVQPGGSLRLSCAASPASGFTLDLYTIAWFLQAPGKEREGVSAISLSDEITYYSDTVKGRFTISRDSAKNTVFLQMDRLKPEDTGVYYCAIGAFDFILKEADADYWGQGTQVTVSS
B8: VHH antibody Ma7A07 (VHH)
VHH: QVQLVESGGGLVQPGGSLRLSCAASGFTLGDYTLGWFRQAPGKQREGVSSIASSALSIYIADSVKGRFTISRDDAKNTIYLHMNNLKPEDTGVYYCARGVDSWRWVPSAMDLWGKGTLVTVSS
B9: VHH antibody Ma7B12 (VHH)
VHH: QVQLVESGGGLVQPGGSLRLSCAASGFTLGDYTLGWFRQAPGKQREGVSSIASSALSIYIADSVKGRFTISRDNAKNTVYLHMNNLKPEDTGVYYCARGIDNWRWVPSAMDLWGKGTQVTVSS
B10: VHH antibody Ma7A08 (VHH)
VHH: QVQLVESGGGLVQPGGSLTLSCAASGFTLGDYTLGWFRQAPGKQREGVSSIASSVLSVYIADSVKGRFTISRDDAKNTIYLHMNNLKPEDTGVYYCARGVDSWRWVPSAMDLWGKGTLVTVSS
B11: VHH antibody Ma7B03 (VHH)
VHH: QVQLVESGGGLVQPGGSLRLSCAASGFTLSNYYVGWFRQAPGKQREGVSSIGSSDLSIYIADSVKGRFTISRDNAKNTIYLHMNNLKPDDTGVYYCARGTDSWRWVPSAMDLWGKGTQVTVSS
B12: VHH antibody Ma7D06 (VHH)
VHH: QVQLVESGGGLVQAGGSLRLSCAASGSISGIDTMAWFRQIPGKDREFVAVIKWAAGSTWYPDFVKGRFTVSRDNAKNMVYLQMDSVKPEDTAIYYCAAAAGEKYYYRLFPYEYDYWGQGTQVTVSS
B13: VHH antibody Ma8E03 (VHH)
VHH: QVQLVESGGGLVHPGGSLRLSCAASGSSLDHYVIGWFRQVPGKEREGVSCISRSGGSTNYADSVKGRFTVSRDNVKNMVYLQMNSLEPEDSAEYYCAAQRNLGNFCVLGWLEYDDWGQGTQVTVSS
B14: VHH antibody Ma8G02 (VHH)
VHH: QVQLVESGGGLVLPGGSLRLSCAASGSSLDHYVIGWFRQYPGKEREGVSCISRSGGSTNYADSVKGRFTVSRDNVKNMVYLQMNSLEPEDSAEYYCAAQRNLGNFCVLGWVEYDDWGQGTQVTVSS
B15: VHH antibody Ma7F02 (VHH)
VHH: QVQLVESGGGLVQAGGSLRLSCTVSGSIDSLHTMGWFRQAPGKKRDFVAVVSWSGGNTYYPDYAKGRFTISRDNTKNTVYLQMNSLKPEDTAIYYCAAESGSGNYWKIWEHEFDSWGQGTQVTVSS
B16: VHH antibody Ma8H03 (VHH)
VHH: QVQLVESGGGLVHPGGSLRLSCAASGSSLDHYVIGWFRQVPGKQREGISCISSGGSTNYADSVKGRFTVSRDNVKSTVYLQMNSLAPDDSAEYYCAAQRNLGNFCVLGWLEYDDWGQGTQVTVSS
B17: VHH antibody Ma7C11 (VHH)
VHH: QVQLVESGGGLVRAGGSLRLSCAASGSISSVNGMGWFRQAPGKERLFVAQVSLLDSSTYYADSVKGRFTISRDDAKNTMYLQMNNVRPEETAVYYCAATKLRIGTAFSSEYDYWGQGTQVTVSS

In the first assay the target is T1, Cys-HLA used for Octet assays following biotinylation at the N-terminal ectopic cysteine (Staphylococcus aureus, UniProt P09616 27-319).
Experiment: not given
For the molecule B1, the dissociation constant (Kd) (in general, the free concentration of one partner at which half of the binding sites on the other are occupied at equilibrium, for simple one-to-one binding) is 0.8 nM. This counts as sub-nanomolar.

B2 showed a dissociation constant Kd of 1 nM. The Kd values of the last two molecules are within 1.5-fold of each other.

In the case of B3, binding was characterised by a dissociation constant (Kd) of 0.05 nM. Compared with the last molecule, the Kd is about 20-fold lower.

B4 had a Kd of at most 0.01 nM.

B5: the affinity, expressed as Kd, was 0.09 nM.

B6 registered a dissociation constant (Kd) of 0.6 nM. This Kd lies about 6.7-fold higher than the previous one.

As for B7, the dissociation constant (Kd) was determined as 1 nM.

B8 came in with a Kd of at most 0.01 nM.

Regarding B9, the Kd is at most 0.01 nM.

Regarding B10, the Kd is at most 0.01 nM.

With B11, the dissociation constant (Kd) is at most 0.01 nM.

On to B12, for which binding was put at a Kd of 0.06 nM.

Molecule B13 came in with an equilibrium dissociation constant (Kd) of at most 0.01 nM.

For the molecule B14, the dissociation constant (Kd) is at most 0.01 nM.

Molecule B15 had a dissociation constant Kd of 0.04 nM.

Regarding B16, the Kd is at most 0.01 nM.

B17 came in with an equilibrium dissociation constant (Kd) of 0.3 nM.

A further assay concerns the target T1, Cys-HLA used for Octet assays following …. The assay is described as follows: BLI (Octet), biotinylated HLA on streptavidin sensors. On the technique in general: BLI is a label-free optical method that tracks binding on a fibre tip over time.
In the case of B15, the Kd is about 0.05 nM.

Source of the values: patent EP4410371A1 (Max-Planck-Gesellschaft zur Förderung der Wissenschaften …, dated 2024).
